The results in this text go back to patent US20250250360A1 (CCBIOTECH, published 2025).

The test concerns the target T1, sulfatase 1 (SULF1) antigen.
T1 construct: also called antigen peptide
T1 peptide: CNPRPKNLDVGNKDGGSYD
The test is described as follows: indirect ELISA, antigen coated on plate, HRP-labeled secondary antibody, A450 nm. The source says:
This embodiment is directed to two antibodies (anti-GALNS specific antibody and anti-SULF1 specific antibody) and analyzes their specificity to the target proteins under different concentrations of antigen. The indirect ELISA detection method was used to conduct antibody specificity analysis, compare the specificity performance of antibodies to different concentrations of antigens, and BSA was used as the background control group for evaluation. The antigen was coated on a 96-well ELISA plate, the test antibody and the HRP-labeled secondary antibody were added for reaction, and the absorbance value was measured using a 450 nm wavelength microplate reader.
A general note: In an ELISA, binding on a coated surface is turned into a signal by an enzyme label.

B1: anti-sulfatase 1 (SULF1) specific antibody (antibody, V domains shown)
VH: EVKLQESGAELVKPGASVKMSCKASGYTFTSYWMHWVKQRPGQGLEWIGTIDPSDSYTSYNQKFKGKATLTVDTSSSTAYMQLSSLTSEDSAVYYCTRGEYGNAMDYWGQGTSVTVSS
VL: DIVLTQTPSYLAASPGETITINCRASKSISKYLAWYQEKPGKTNKLLIYSGSTLQSGIPSRFSGSGSGTDFTLTISSLEPEDFAMYYCQQHNEYPYTFGGGTKLEIKR
notes: also called anti-SULF1 specific antibody; anti-Sulf1 specific antibody
Regarding B1, the binding result is listed as “binds”.
